From patent US20150344570A1 (published 2015)

T1: FcγRIIa R (FcγRIIa, allotype with Arg at position 131), extracellular domain with C-terminal His tag (human, UniProt P12318 34-217)
T1 construct: extracellular domain; also called FcγRIIa R type; 2aR
T1 sequence (looked up): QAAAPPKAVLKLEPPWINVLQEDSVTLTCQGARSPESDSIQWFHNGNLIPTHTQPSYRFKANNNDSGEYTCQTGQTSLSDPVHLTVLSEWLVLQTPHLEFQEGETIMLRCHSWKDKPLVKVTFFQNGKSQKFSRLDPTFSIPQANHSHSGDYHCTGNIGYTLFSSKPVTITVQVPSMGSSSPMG


molecular target: T1, FcγRIIa R (FcγRIIa, allotype with Arg …); assay: SPR (Biacore), antibody captured on antigen peptide chip, FcγR as analyte; relative binding
Method: Analysis of interaction between objective antibody and the FcγR was carried out using Biacore T100 (GE Healthcare). HBS-EP+ (GE Healthcare) was used as the running buffer, and the measurement temperature was set to 25° C. Chips produced by immobilizing the antigen peptide by the amine coupling method to a Series S Sencor Chip CM5 (GE Healthcare), or alternatively, chips produced by allowing preliminarily biotinylated antigen peptides to interact with and immobilize onto a Series S Sensor Chip SA (certified) (GE Healthcare) were used. Antibodies of interest were captured onto an antigen peptide-immobilized chip, and allowed to interact to each FcγR diluted with running buffer. To regenerate and repeatedly use the chip, the antibodies captured on the chip were washed off by reacting 10 mM glycine-HCl, pH 1.5.

He/Con_2aR	Binder
105 % of GpH7-A5/GpH7-B3/GpL16-k0 (=100)	GpH7-A5/GpH7-B3 variant S298_08L/GpL16-k0 (antibody, human IgG1, kappa, also called He Ab) heavy 1: not shown heavy 2: not shown light: DIVMTQSPLSLPVTPGEPASISCQASESLVHSNRNTYLHWYLQKPGQSPQLLIYKVSNRFSGVPDRFSGSGSGTDFTLKISRVEAEDVGVYYCSQNTHVPPTFGQGTKVEIERTVAAPSVFIFPPSDEQLKSGTASVVCLLNNFYPREAKVQWKVDNALQSGNSQESVTEQDSKDSTYSLSSTLTLSKADYEKHKVYACEVTHQGLSSPVTKSFNRGEC
108 % of GpH7-A5/GpH7-B3/GpL16-k0 (=100)	GpH7-A5/GpH7-B3 variant S298_06M/GpL16-k0 (antibody, human IgG1, kappa, also called He Ab) heavy 1: not shown heavy 2: not shown light: DIVMTQSPLSLPVTPGEPASISCQASESLVHSNRNTYLHWYLQKPGQSPQLLIYKVSNRFSGVPDRFSGSGSGTDFTLKISRVEAEDVGVYYCSQNTHVPPTFGQGTKVEIERTVAAPSVFIFPPSDEQLKSGTASVVCLLNNFYPREAKVQWKVDNALQSGNSQESVTEQDSKDSTYSLSSTLTLSKADYEKHKVYACEVTHQGLSSPVTKSFNRGEC
103 % of GpH7-A5/GpH7-B3/GpL16-k0 (=100)	GpH7-A5/GpH7-B3 variant S239_14T/GpL16-k0 (antibody, human IgG1, kappa, also called He Ab) heavy 1: not shown heavy 2: not shown light: DIVMTQSPLSLPVTPGEPASISCQASESLVHSNRNTYLHWYLQKPGQSPQLLIYKVSNRFSGVPDRFSGSGSGTDFTLKISRVEAEDVGVYYCSQNTHVPPTFGQGTKVEIERTVAAPSVFIFPPSDEQLKSGTASVVCLLNNFYPREAKVQWKVDNALQSGNSQESVTEQDSKDSTYSLSSTLTLSKADYEKHKVYACEVTHQGLSSPVTKSFNRGEC
101 % of GpH7-A5/GpH7-B3/GpL16-k0 (=100)	GpH7-A5/GpH7-B3 variant S239_06M/GpL16-k0 (antibody, human IgG1, kappa, also called He Ab) heavy 1: not shown heavy 2: not shown light: DIVMTQSPLSLPVTPGEPASISCQASESLVHSNRNTYLHWYLQKPGQSPQLLIYKVSNRFSGVPDRFSGSGSGTDFTLKISRVEAEDVGVYYCSQNTHVPPTFGQGTKVEIERTVAAPSVFIFPPSDEQLKSGTASVVCLLNNFYPREAKVQWKVDNALQSGNSQESVTEQDSKDSTYSLSSTLTLSKADYEKHKVYACEVTHQGLSSPVTKSFNRGEC

More lines, now with the values behind:

Binder	He/Con_2aR
GpH7-A5/GpH7-B3 variant P331_16H/GpL16-k0 (antibody, human IgG1, kappa, also called He Ab) heavy 1: not shown heavy 2: not shown light: DIVMTQSPLSLPVTPGEPASISCQASESLVHSNRNTYLHWYLQKPGQSPQLLIYKVSNRFSGVPDRFSGSGSGTDFTLKISRVEAEDVGVYYCSQNTHVPPTFGQGTKVEIERTVAAPSVFIFPPSDEQLKSGTASVVCLLNNFYPREAKVQWKVDNALQSGNSQESVTEQDSKDSTYSLSSTLTLSKADYEKHKVYACEVTHQGLSSPVTKSFNRGEC	114 % of GpH7-A5/GpH7-B3/GpL16-k0 (=100)
GpH7-A5/GpH7-B3 variant S239_05P/GpL16-k0 (antibody, human IgG1, kappa, also called He Ab) heavy 1: not shown heavy 2: not shown light: DIVMTQSPLSLPVTPGEPASISCQASESLVHSNRNTYLHWYLQKPGQSPQLLIYKVSNRFSGVPDRFSGSGSGTDFTLKISRVEAEDVGVYYCSQNTHVPPTFGQGTKVEIERTVAAPSVFIFPPSDEQLKSGTASVVCLLNNFYPREAKVQWKVDNALQSGNSQESVTEQDSKDSTYSLSSTLTLSKADYEKHKVYACEVTHQGLSSPVTKSFNRGEC	106 % of GpH7-A5/GpH7-B3/GpL16-k0 (=100)
GpH7-A5/GpH7-B3 variant P331_18N/GpL16-k0 (antibody, human IgG1, kappa, also called He Ab) heavy 1: not shown heavy 2: not shown light: DIVMTQSPLSLPVTPGEPASISCQASESLVHSNRNTYLHWYLQKPGQSPQLLIYKVSNRFSGVPDRFSGSGSGTDFTLKISRVEAEDVGVYYCSQNTHVPPTFGQGTKVEIERTVAAPSVFIFPPSDEQLKSGTASVVCLLNNFYPREAKVQWKVDNALQSGNSQESVTEQDSKDSTYSLSSTLTLSKADYEKHKVYACEVTHQGLSSPVTKSFNRGEC	105 % of GpH7-A5/GpH7-B3/GpL16-k0 (=100)
GpH7-A5/GpH7-B3 variant S324_04F/GpL16-k0 (antibody, human IgG1, kappa, also called He Ab) heavy 1: not shown heavy 2: not shown light: DIVMTQSPLSLPVTPGEPASISCQASESLVHSNRNTYLHWYLQKPGQSPQLLIYKVSNRFSGVPDRFSGSGSGTDFTLKISRVEAEDVGVYYCSQNTHVPPTFGQGTKVEIERTVAAPSVFIFPPSDEQLKSGTASVVCLLNNFYPREAKVQWKVDNALQSGNSQESVTEQDSKDSTYSLSSTLTLSKADYEKHKVYACEVTHQGLSSPVTKSFNRGEC	104 % of GpH7-A5/GpH7-B3/GpL16-k0 (=100)
GpH7-A5/GpH7-B3 variant S267_06M/GpL16-k0 (antibody, human IgG1, kappa, also called He Ab) heavy 1: not shown heavy 2: not shown light: DIVMTQSPLSLPVTPGEPASISCQASESLVHSNRNTYLHWYLQKPGQSPQLLIYKVSNRFSGVPDRFSGSGSGTDFTLKISRVEAEDVGVYYCSQNTHVPPTFGQGTKVEIERTVAAPSVFIFPPSDEQLKSGTASVVCLLNNFYPREAKVQWKVDNALQSGNSQESVTEQDSKDSTYSLSSTLTLSKADYEKHKVYACEVTHQGLSSPVTKSFNRGEC	122 % of GpH7-A5/GpH7-B3/GpL16-k0 (=100)
GpH7-A5/GpH7-B3 variant Q295_10E/GpL16-k0 (antibody, human IgG1, kappa, also called He Ab) heavy 1: not shown heavy 2: not shown light: DIVMTQSPLSLPVTPGEPASISCQASESLVHSNRNTYLHWYLQKPGQSPQLLIYKVSNRFSGVPDRFSGSGSGTDFTLKISRVEAEDVGVYYCSQNTHVPPTFGQGTKVEIERTVAAPSVFIFPPSDEQLKSGTASVVCLLNNFYPREAKVQWKVDNALQSGNSQESVTEQDSKDSTYSLSSTLTLSKADYEKHKVYACEVTHQGLSSPVTKSFNRGEC	102 % of GpH7-A5/GpH7-B3/GpL16-k0 (=100)
